Experimental data reported in US20220281936.

Key:
[1] = test system: Mouse IL12 (unmodified)
[2] = test system: IL12Rβ1-VP-IL12
[3] = test system: IL12Rβ1-LS-IL12
IL12Rβ1-LS-IL12, sequence (chain, as listed by the source, chain 1 of 2): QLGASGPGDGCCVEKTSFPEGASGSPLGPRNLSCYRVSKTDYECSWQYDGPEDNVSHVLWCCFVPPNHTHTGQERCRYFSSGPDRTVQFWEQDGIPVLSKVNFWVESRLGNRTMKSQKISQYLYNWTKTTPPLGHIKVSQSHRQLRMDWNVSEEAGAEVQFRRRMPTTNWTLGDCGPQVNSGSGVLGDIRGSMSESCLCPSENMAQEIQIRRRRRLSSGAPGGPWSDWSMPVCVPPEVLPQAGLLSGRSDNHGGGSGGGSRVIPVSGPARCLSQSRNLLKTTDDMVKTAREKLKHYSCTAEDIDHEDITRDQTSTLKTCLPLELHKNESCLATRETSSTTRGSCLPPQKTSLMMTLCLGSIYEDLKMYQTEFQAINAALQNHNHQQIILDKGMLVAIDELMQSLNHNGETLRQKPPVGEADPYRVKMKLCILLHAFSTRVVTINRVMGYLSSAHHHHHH
IL12Rβ1-LS-IL12, sequence (chain, as listed by the source, chain 2 of 2): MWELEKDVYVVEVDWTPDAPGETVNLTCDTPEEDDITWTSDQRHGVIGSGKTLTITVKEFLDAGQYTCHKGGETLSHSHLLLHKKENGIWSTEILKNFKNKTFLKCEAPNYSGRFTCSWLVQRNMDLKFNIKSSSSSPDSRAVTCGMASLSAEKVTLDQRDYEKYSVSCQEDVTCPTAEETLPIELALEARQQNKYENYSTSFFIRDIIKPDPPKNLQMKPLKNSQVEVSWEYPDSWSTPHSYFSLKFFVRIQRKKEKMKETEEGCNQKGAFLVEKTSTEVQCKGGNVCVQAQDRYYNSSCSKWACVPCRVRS

Mouse IL12 (unmodified), sequence (chain, as listed by the source, chain 1 of 2): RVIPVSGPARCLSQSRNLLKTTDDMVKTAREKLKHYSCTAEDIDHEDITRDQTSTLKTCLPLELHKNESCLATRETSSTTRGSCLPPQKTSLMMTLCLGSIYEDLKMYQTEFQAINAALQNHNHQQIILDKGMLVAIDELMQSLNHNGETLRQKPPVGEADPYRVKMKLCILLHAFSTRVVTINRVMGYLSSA
Mouse IL12 (unmodified), sequence (chain, as listed by the source, chain 2 of 2): as the sequence (chain, as listed by the source, chain 2 of 2) above
Recombinant mouse matrix metalloproteinase-2 (MMP2), sequence (chain, as listed by the source): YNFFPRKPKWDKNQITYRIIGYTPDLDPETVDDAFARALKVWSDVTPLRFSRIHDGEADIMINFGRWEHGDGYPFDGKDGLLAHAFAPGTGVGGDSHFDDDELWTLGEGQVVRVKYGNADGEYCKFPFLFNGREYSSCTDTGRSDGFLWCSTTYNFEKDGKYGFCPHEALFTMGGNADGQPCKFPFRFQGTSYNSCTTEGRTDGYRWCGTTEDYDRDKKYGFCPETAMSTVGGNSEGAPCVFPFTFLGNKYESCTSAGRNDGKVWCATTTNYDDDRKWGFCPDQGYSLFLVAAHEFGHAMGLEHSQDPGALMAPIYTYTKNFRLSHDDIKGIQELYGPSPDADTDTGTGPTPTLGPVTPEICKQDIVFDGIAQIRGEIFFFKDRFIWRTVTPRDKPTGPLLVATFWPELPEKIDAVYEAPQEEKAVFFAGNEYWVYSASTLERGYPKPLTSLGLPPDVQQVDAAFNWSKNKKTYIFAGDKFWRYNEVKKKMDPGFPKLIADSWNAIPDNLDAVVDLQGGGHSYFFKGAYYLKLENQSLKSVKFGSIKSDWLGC

Recombinant mouse matrix metalloproteinase-2 (MMP2)
proteolytic cleavage, SDS-PAGE [1]: These enzymes had no effect on IL12 itself | proteolytic cleavage, SDS-PAGE (30 min, 37 C) [2]: MMP2 and MMP9 fully cleaved the IL12Rβ1 portion, yielding IL12 heterodimer (-60 kDa)

Recombinant human urokinase plasminogen activator (uPA)
proteolytic cleavage, SDS-PAGE [3]: IL12Rβ1-LS-IL12 containing LSGRSDNH (SEQ ID NO:49) substrate was cleaved by uPA | proteolytic cleavage, SDS-PAGE [1]: These enzymes had no effect on IL12 itself
